# B1: IMAB-362 (antibody, human IgG1, kappa, V domains shown)
# VH: QVQLQQPGAELVRPGASVKLSCKASGYTFTSYWINWVKQRPGQGLEWIGNIYPSDSYTNYNQKFKDKATLTVDKSSSTAYMQLSSPTSEDSAVYYCTRSWRGNSFDYWGQGTTLTVSS
# VL: DIVMTQSPSSLTVTAGEKVTMSCKSSQSLLNSGNQKNYLTWYQQKPGQPPKLLIYWASTRESGVPDRFTGSGSGTDFTLTISSVQAEDLAVYYCQNDYSYPFTFGSGTKLEIKR
# B2: h1901-11 (antibody, human IgG1, kappa, V domains shown)
# VH: EVQLVESGGGLVQPGGSLRLSCAASGFTFSDYGIHWVRQAPGKGLEWIAYISRGSSTIYYADTVKGRFTISRDNAKNSLYLQMTSLRAEDTAVYYCARGGYDTRNAMDYWGQGTTVTVSS
# VL: DIVMTQSPDSLAVSLGERATISCKSSQSLLNSGNQKNYLAWYQQKPGQPPKLLIYGASTRASGVPDRFSGSGSGTDFTLTISSLQAEDVAIYHCQNDLYYPLTFGQGTKLEIKR
# Molecular target: human Claudin18.2 (human)
# Assay: cell-based or functional assay
Binder,"ADCC effect, IC50 (ng/ml), NUGC4 cells with high Claudin18.2 expression","ADCC effect, IC50 (ng/ml), NUGC4 cells with low Claudin18.2 expression","ADCC effect, IC50 (ng/ml), NUGC4 cells with moderate Claudin18.2 expression"
B1,133 ng/mL,183 ng/mL,210 ng/mL
B2,26.2 ng/mL,22.4 ng/mL,15.3 ng/mL
